Measurements taken from publication PMC10980356 (The Plant Cell, 2023).

T1: MLO6-NLuc (A. thaliana, UniProt Q94KB7 1-583)
T1 sequence: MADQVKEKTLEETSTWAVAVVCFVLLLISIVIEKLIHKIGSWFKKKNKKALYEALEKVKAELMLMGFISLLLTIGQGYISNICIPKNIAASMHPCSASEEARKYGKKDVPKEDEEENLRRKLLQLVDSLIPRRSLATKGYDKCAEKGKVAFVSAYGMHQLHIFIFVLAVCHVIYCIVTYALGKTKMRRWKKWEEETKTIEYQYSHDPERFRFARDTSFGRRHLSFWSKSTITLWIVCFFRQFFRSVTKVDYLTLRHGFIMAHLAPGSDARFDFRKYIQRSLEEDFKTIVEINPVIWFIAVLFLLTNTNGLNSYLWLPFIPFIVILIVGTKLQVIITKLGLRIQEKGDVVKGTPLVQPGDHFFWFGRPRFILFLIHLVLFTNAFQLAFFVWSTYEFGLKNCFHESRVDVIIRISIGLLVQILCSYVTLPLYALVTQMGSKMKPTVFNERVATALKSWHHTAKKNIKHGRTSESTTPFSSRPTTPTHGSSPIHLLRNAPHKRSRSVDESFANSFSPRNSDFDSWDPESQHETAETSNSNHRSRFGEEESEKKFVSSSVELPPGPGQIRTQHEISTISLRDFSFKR

T2: MLO2-NLuc (A. thaliana, UniProt Q9SXB6 1-573)
T2 sequence: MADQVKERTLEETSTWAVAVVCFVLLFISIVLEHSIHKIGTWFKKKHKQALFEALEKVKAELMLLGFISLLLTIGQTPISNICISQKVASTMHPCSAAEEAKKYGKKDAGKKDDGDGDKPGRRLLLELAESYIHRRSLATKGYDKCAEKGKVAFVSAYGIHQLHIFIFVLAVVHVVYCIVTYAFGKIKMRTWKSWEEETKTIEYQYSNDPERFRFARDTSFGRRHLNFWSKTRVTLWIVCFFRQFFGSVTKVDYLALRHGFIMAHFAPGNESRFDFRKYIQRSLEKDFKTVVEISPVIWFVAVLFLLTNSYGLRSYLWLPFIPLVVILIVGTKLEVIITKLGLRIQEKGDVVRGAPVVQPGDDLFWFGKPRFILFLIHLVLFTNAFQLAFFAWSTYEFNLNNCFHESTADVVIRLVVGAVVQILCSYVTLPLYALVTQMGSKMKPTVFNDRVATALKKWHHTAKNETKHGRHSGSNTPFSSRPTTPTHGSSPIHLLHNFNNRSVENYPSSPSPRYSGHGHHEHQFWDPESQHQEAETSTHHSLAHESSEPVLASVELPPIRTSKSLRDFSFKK

T3: MLO12-NLuc (A. thaliana, UniProt O80961 1-576)
T3 sequence: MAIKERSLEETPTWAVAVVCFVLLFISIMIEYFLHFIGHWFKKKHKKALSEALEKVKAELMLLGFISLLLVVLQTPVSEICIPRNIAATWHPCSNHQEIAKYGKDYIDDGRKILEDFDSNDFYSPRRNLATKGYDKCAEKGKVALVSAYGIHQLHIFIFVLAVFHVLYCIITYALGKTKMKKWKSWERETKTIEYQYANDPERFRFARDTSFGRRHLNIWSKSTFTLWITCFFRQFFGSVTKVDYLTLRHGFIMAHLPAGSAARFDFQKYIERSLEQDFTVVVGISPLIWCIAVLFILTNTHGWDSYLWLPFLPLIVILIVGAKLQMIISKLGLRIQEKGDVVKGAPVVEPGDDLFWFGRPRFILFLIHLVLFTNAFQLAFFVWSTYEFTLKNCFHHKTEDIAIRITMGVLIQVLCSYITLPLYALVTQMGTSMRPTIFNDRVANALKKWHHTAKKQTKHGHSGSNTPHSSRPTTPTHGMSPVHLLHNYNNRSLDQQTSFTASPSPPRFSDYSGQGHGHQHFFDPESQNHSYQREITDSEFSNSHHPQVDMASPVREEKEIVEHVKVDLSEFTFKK

B1: CLuc-EXO70H4 (natural protein)
chain: MMTRKAMINICCVATTPSKYPPPPPLTLTPRQSLESAAIYGVIESAADIIERWNTETNTFAKVTCMFYENKPEAMMFIERVKDLQKTMDVLVSEDPNSERLLRSHKLMQIAMKRLQKEFYQILSMNRAYLDPESVSTRSSLTSARSSYSDFPDYVEDLDTIIELEEVSTNVMTDLKSIAECMIGSGYAKECLSIYKSIRKSIIDEGIYRLEVEKTSTGKVKKMSWEVMELKIRSWLKAVKVSMETLFKGEKILCDHVFESSDAIRESCFSDISRDGALLLFGFPEIINTKTSKKHSPPEKVFRLLDMYTAIAGNWQAIESIFSFDSISVVRSLALKSLISLSESIRSLLVEFESGIQKDSSKVVVPGGGVHPLTISVMDHLSLLADYSNVLVDILAGSPPPDRSLLPESYFNVSESDDSPSSELTIRFAWIILVLLCKIDRKSIHYKDFSIQYLFLTNNLQHVVSRARSSNLKNLLGEDWITRHFAKMRQFAGSYKRLAWGPVVATLPENRTVEMTPEEVKERFEKFSESFENAYSKHSVCVVADPNIRDEIKVSISRKLVPIYREFYNTRGSVILGEGDGARNLNSVVRFTPEDIENYLSDLFREKGSSGNSSASSPSSCRSRQSMS
B2: CLuc-EXO70H1 (natural protein)
chain: MAKMAKFSFFSSSSPKYHPSSPSSFTSFPASPLNQNFTQAMMEETVETADSVIRKWDPNTPSFTKIVSLFNHSRKEAKEFIRCVRDLRRAMHFLVSQDSQSPKLALAQTLMQIAMARLEKEFFQILSSNRDKLDPESVSGQSSISSNSEFEDVMGSDDDDESDNEMRKAGESITQVEKASAMVMSDLKAIAESMISCGYGKECVKIYKRVRKSIVDEGLSLLGIEIYKGSRFHRTDWVTLEHMIKNWIKAAKIGIATLFRGEKLLCDHVFSASNSTRESCFYEIANEAATNLFKFPEFVAKEKKSHERIFPLMDLQAAISDLWQDIEMIFHFDAVAGVKSQALTSLQKLKVSIHSALTDFESIIQKDTTKALTPGGGIHKLTRSTMNFISSLSKYSGVLSEILADHPLPRNTRLLESYVRAPISEDEQHNHALSVHFAWLILVLLCKLDTKAEHYKDVSLSYLFLANNLQIIIETVGSTPLRNLLGDDWLNKHEDKLCAYAGNYEIAAWSNVFMSLPEEPTDLSPEEAKIYFRRFHTAFEEAYMKQSSRVVPNAKLRDELKVSIAKKLVPEYREFYRKYLPMLGQERNIEILVRFKPDNLENYISDLFHGTPIHASSSFSSSSSSSSWKSLGCVSG
B3: CLuc-EXO70B2 (natural protein)
chain: MAEAGDENLYAAARDIARALGKDPSAAGDILQILSGYGASGNRGGDPRPTPSRGGSNVNFDRALTSLERQISSYIVEDRPIWSDPVDSRTFLDSVDELLAIAGDLRSMAGDKSVAVCQSRADELIQQVMFRLQEEFGFVMDRAPDSFDSDDEFPGEEDNDTSDGVIVARPITDYKIVIEALQSSVIGDLNAIAVRMVAGGFAKECSRVYSSRRREFLEESLSRLHLRGLSMEEVQESPWQDLEDEIDRWIKAVTLIFHVFFPSERLLCDRVFSDLPVSSVTDLSFMEVCRGTTTQLLNFADAIALGSRLPERLFKVVDLYEAMQDLIPKMETLFSDRYCSPLRHEALAIHKRLGEAIRGIFMELENLIRRDPPKTAFPGGGIHPITRYVMNYLRAACKSRQSLEQILDQTGNETGSDTRPLSVQIIWVLELLESNLEGKKRTYRDPSLCFLFMMNNDKYILDKAKDNELGLVLGEDWIVKHAAKLRQYHSNYRRSSWNQVVGLLRTDGPYPKLVENLRLFKSQFDEVCKVQSQWVVSDGQLREELRSSVAGIVSPAYSNFIRRLKESPEINGRRGEPFIPYTVEDVEFIIKRLFKESSS

Assays:
Experiment in all cases: split reporter
MLO6-NLuc = molecular target: T1, MLO6-NLuc
MLO2-NLuc = molecular target: T2, MLO2-NLuc
MLO12-NLuc = molecular target: T3, MLO12-NLuc

Row | Binder | relative luminescence (in relation to the calmodulin positive control) (MLO6-NLuc) | relative luminescence (in relation to the calmodulin positive control) (MLO2-NLuc) | relative luminescence (in relation to the calmodulin positive control) (MLO12-NLuc)
1 | B1 | ~0.67 | ~0.4 | 
2 | B2 |  | ~0.39 | ~0.37
3 | B3 |  | ~0.56 | 
